Where no end group is shown, it is not given here. Me3 = trimethyl-lysine; Me2 = dimethyl-lysine
T1: GST-fused CONSTANS (CO) (Arabidopsis thaliana, UniProt Q39057 1-373)
T1 construct: Arabidopsis transcription factor CONSTANS (CO); CO cDNA amplified with primers CO-1/CO-2; also called GST-CO; source: E. coli, pGEX-4T-1, purified
T1 sequence (looked up): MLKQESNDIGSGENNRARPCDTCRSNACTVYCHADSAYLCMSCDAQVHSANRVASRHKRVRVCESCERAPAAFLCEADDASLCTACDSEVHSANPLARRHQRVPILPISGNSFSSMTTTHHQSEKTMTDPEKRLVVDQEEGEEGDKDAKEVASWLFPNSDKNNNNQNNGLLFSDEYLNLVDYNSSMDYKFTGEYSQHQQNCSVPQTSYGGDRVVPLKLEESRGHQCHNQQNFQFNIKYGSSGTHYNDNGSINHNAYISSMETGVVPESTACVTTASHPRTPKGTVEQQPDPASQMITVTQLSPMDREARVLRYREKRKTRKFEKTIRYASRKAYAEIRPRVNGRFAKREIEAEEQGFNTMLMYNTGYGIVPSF

T2: MRG2 chromodomain (residues 41-123) (Arabidopsis thaliana, UniProt Q4V3E2 41-123)
T2 construct: Arabidopsis thaliana MRG2 chromodomain, residues 41-123; Construct of the ITC; source: cloned into pET28-SMT3, purified, tag removed
T2 sequence (looked up): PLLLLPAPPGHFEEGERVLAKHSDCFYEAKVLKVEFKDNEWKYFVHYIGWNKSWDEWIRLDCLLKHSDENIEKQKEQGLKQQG


Assays:
[1] = biological target: T1, GST-fused CONSTANS (CO); assay: pull-down; GST-fused CO (or GST alone) with His-tagged MRG2, MRG2C or MRG2N, purified from E. coli; protocol of ref. 51; details: both partners purified
[2] = biological target: T2, MRG2 chromodomain (residues 41-123); assay: ITC; 25 C, MicroCal iTC200; 50 mM Tris pH 8.0, 100 mM NaCl; 0.2-0.4 mM protein in the cell, 2-4 mM peptide injected in 2 ul aliquots (20 injections); one-site model; details: both partners purified

Binder	binding result [1]	Kd [2]
His-tagged MRG2 (natural protein, Arabidopsis thaliana, UniProt Q4V3E2 1-327, looked up, Arabidopsis MRG2 cDNA amplified with primers MRG2-1/MRG2-10; MRG2-1 is the forward primer of MRG2N (cDNA from nucleotide 1) and MRG2-10 the reverse primer of MRG2C (cDNA to nucleotide 984); also called MRG2 tagged with multiple His residues; His-MRG2; source: E. coli, pET-30a, purified (His tag)) MGSPNAAAETDLTTDDFIGDTRRDSGSDTETNTDCDGEDLPLLLLPAPPGHFEEGERVLAKHSDCFYEAKVLKVEFKDNEWKYFVHYIGWNKSWDEWIRLDCLLKHSDENIEKQKEQGLKQQGIKSAMAWKVSKMKPRSPNVARGRKRKQDSVDTEKNVLPSDNLLSFNIPPALRKQLLDDFEFVTQMQKLVQLPRSPNVDGILKKYIDSQMKKHGRVTDSLEEILKGLRCYFDKALPVMLLYNNERKQYEESVSGGVSPSTVYGAEHLLRLFVKLPELLVHVNMAEETLKELQDNFVDILRFLRKNQSVLFVSTYKAVEEMEKKEG	binds	
KAARK(Me3)SAPA [H3K27me3 peptide (residues 23-31)]		2500 µM
ARTK(Me2)QTARK [H3K4me2 peptide (residues 1-9)]		2400 µM
KQTARK(Me3)STGG [H3K9me3 peptide (residues 4-13)]		1200 µM
His-tagged MRG2C (MRG domain of MRG2) (domain or fragment, Arabidopsis thaliana, UniProt Q4V3E2 148-327, looked up, Arabidopsis MRG2; MRG2C is cDNA 442-984, which are nucleotides, i.e. from residue 148 to the C-terminus; holds the MRG domain; source: E. coli, pET-30a, purified (His tag)) RKQDSVDTEKNVLPSDNLLSFNIPPALRKQLLDDFEFVTQMQKLVQLPRSPNVDGILKKYIDSQMKKHGRVTDSLEEILKGLRCYFDKALPVMLLYNNERKQYEESVSGGVSPSTVYGAEHLLRLFVKLPELLVHVNMAEETLKELQDNFVDILRFLRKNQSVLFVSTYKAVEEMEKKEG	binds	

Reference: article PMC4161306, “Regulation of Arabidopsis Flowering by the Histone Mark Readers MRG1/2 via Interaction with CONSTANS to Modulate FT Expression” (PLoS Genetics, 2014)
